Experimental data published in the supplement of paper PMC9170038.

What was measured:
MS2 coat protein [1] = assay: apparent KD of MS2 coat protein; designed switch direction (-1 OFF switch, 1 ON switch): -1; higher = weaker reporter binding; conditions: Eterna round: R98
Protocol: (§1)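 RNA-MaP: designed FMN/MS2 RNA switches (84 nt design region) are transcribed on-chip within common flanks and titrated with SNAP-549-labelled MS2 coat protein (about 1-3000 nM) in 100 mM Tris pH 7.5, 80 mM KCl, 4 mM MgCl2, without or with 200 uM FMN. Median apparent KD per design; activation ratio = KD,OFF / KD,ON.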

MS2 coat protein [2] = assay: apparent KD of MS2 coat protein; higher = weaker reporter binding; conditions: Eterna round: R101
Protocol: as §1

Row | Sequence | apparent KD of MS2 coat protein (MS2 coat protein [1]; input ligand: FMN 200 uM) [nM] | apparent KD of MS2 coat protein (MS2 coat protein [1]; input ligand: none) [nM] | apparent KD of MS2 coat protein (MS2 coat protein [2]; input ligand: FMN 200 uM) [nM] | apparent KD of MS2 coat protein (MS2 coat protein [2]; input ligand: none) [nM]
1 | UAUAUAUAGGCAGGAUAUACAUGAAUAUAUAAUAUAAUAUAUAAUAUAACAUGAGGAUCACCCAUGUAGAAGGGCCAUAAUAUA [LRO031_Exclusion NG 2] | 109 | 48.6 |  | 
2 | AUGACAGGCAGAGCGCAACGGCGUACAUGAGGAUCACCCAUGUAGGAUAUACUACACAAAGUGUAGUAGAAGGACAUGCGACGC [Ex NG2 #87] | 34.4 | 23.2 |  | 
3 | AUGGAUAUCACAGGAUAUGAUAUGGAUACCAUAUCAGAAGGGUGACCCAUCCUAUGUAAAUACAUGAGGAUCACCCAUGUGUCC [Sara'sguidence+#HughScoreProbStacks#11] (puzzle (switch architecture): Same State NG 1) |  |  | 340 | 640
4 | AGAAACUACGAGAAGGACAUGUGGUCCUUCAAAACCAUGAGGAUCACCCAUGUAGGAUAUCGUAGUUUCAGGAUCGUGAGAUCA [salish99_ISLExNG1_023 #HINGE] (puzzle (switch architecture): Inverted Small Loop Exclusion NG 1) |  |  | 12.1 | 268
5 | UAUAUAUAGGCAGGAUAUACAUGUAUAUAUAAUUUUUUAUAUAUUAUUACAUGAGGAUCACCCAUGUAGAAGGGCCUUAUUAUA [LRO039_Exclusion NG 2] | 62.8 | 46.9 |  | 
6 | GGAGACCUUACAGGAUAUGCUGGACUUUGUCCAGCAGAAGGGUGAAAACAUGAGGAUCACCCAUGUAUGGUCUCCAAAUUUAAU [jl-ssng1-3.02 #GU_VS_GC_SWITCHING] (puzzle (switch architecture): Same State NG 1) |  |  | 21.2 | 19.1
7 | GCAGCUAAUGCAGGAUAUCAGCACGUGUAGUGCUGAGAAGGGCACAUGAGGAUCACCCAUGUGAUCAAUUAAUGUUAAUGCUGC [ExNG1 1 #C-Saturation] (puzzle (switch architecture): Exclusion NG 1) |  |  | 15.2 | 6.82
8 | CGCUAUAACAUGAGGAUCACCCAUGUAUACAUGGAAUUGACGUAGGAUAUGCAGUUGAUUAUAGUGCAGAAGGACGGUAUAGCG [JR #DistanceFar #Hairpin #Noisy #NP SSNG3 Sub069] (puzzle (switch architecture): Same State NG 3) |  |  | 37.3 | 101
9 | AUAUAUAUUUAGAAGGACAUGAGGAUCACCCAUGUCGCCGGGCCCGGGAAACCGGGCCCGGCCAUGUAGGAUAUAGAUAUAUAU [#This is a good prank 13] (puzzle (switch architecture): Inverted Exclusion NG 2) |  |  | 9.05 | 6.41
10 | UGUUGUUACGCAGGAUAUUGCCAACAGGCAGUAGGAUAUCCGAAAGGAGAAGGAUCGCCAACAGGCGAGAAGGGCGGGUUAACA [pwkr exNG2 2xF7 2FMN.10.2] | 194 | 706 |  | 
11 | CGAAGUCCGUAGAAGGGUGACAUGAGGAUCACCCAUGUGCGAGCCGAUGGAGUCAGCGGCUCGCCACAGGAUAUACGGAGCACG [Isdiesrama] (puzzle (switch architecture): Inverted Same State NG 2) |  |  | 22.3 | 180
12 | CCAUAAAAGAUCCAUUUUUACAACAUGAGGAUCACCCAUGUGCAGGAUAUCGUGAAAGUUAAAUACGAGAAGGGCAAGAACUGC [JR_ExcNG3_Sub050] | 104 | 105 |  | 
13 | AUGACAGGCAGAGCGCAACGGCGUACAUGAGGAUCACCCAUGUAGGAUAUACUACACAAAGUGUAGUAGAAGGACAUGCGACGG [Ex NG2 #89] | 69 | 35.8 |  | 
14 | AAAAAUUCUUAAGGAUAUCAGUGGCAAAGCCACUGAGAAGGUGAGGAUCACCCACCUACGUGACGCUGGAAACAGCGUCACGAA [#SharedSequence ExNG1 - 29] (puzzle (switch architecture): Exclusion NG 1) |  |  | 18.8 | 16.6
15 | UAUUAUAUAUAGAAGGACAUGAGGAUCACCCAUGUCGCCGGGCCCGGGAAACCGGGCCCGGCCAUGUAGGAUAUAUAUAUGGUA [#This is a good prank 8] (puzzle (switch architecture): Inverted Exclusion NG 2) |  |  | 6.2 | 6.38
16 | CGAUAUAUGAAGGGCAAACGCCCACAUGAGGAUCACCCAUGUAGAAGGCGAUCCGCAACGCGGAUCGAGGAUAUAUAGUAUACA [#my 15th design] (puzzle (switch architecture): Inverted Exclusion NG 3) |  |  | 10.6 | 11.2
17 | AAUAAUUCUUAAGGAUAUGACUCCGAAACGGAGUCAGAAGGUGAGGAUCACCCACCUAGCUCAGCGUCGAAAGACGCUGAGCAA [#SharedSequence ExNG1 - 31] (puzzle (switch architecture): Exclusion NG 1) |  |  | 12.7 | 10.5
18 | AGGACAGGCAGAGCGCAACGGCGUACAUGAGGAUCACCCAUGUAGGAUAUACUACACAAAGUGUAGUAGAAGGACAUGCGACGC [Ex NG2 #88] | 45.6 | 16.1 |  | 
19 | CCUUUAAAGAUCCAAAAUUACAACAUGAGGAUCACCCAUGUGCAGGAUAUCGUGCCAGUGAUGUACGAGAAGGGCAGACUCUGC [salish99_ExNG3_r2_015] | 95.2 | 105 |  | 
